Values quoted from earlier work in article PMC8152036.

Tests used:
Assay in all cases: SPR
[1] = biological target: RNase Y (Bacillus subtilis) (UniProt O31774)
PfkA (Bacillus subtilis) = PfkA (Bacillus subtilis) (UniProt O34529)
[2] = biological target: RNase J1 (Bacillus subtilis) (UniProt Q45493)
Chain of UniProt Q45493 (Q45493 whole entry): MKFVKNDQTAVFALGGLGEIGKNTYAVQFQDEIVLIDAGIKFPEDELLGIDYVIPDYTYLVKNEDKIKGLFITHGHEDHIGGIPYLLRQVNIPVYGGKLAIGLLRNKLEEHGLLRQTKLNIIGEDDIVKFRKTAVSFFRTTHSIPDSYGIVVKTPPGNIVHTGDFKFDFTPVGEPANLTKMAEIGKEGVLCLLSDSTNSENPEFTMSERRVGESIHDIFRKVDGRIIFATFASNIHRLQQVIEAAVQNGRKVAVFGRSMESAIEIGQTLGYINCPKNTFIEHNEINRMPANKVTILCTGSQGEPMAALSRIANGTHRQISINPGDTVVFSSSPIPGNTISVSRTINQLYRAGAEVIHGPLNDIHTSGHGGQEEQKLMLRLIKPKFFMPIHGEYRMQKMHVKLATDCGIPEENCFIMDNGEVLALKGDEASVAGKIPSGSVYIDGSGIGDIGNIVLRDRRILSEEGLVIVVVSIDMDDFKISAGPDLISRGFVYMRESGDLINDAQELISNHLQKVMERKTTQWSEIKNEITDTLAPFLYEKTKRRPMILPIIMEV

Chain of UniProt O31774 (O31774 whole entry): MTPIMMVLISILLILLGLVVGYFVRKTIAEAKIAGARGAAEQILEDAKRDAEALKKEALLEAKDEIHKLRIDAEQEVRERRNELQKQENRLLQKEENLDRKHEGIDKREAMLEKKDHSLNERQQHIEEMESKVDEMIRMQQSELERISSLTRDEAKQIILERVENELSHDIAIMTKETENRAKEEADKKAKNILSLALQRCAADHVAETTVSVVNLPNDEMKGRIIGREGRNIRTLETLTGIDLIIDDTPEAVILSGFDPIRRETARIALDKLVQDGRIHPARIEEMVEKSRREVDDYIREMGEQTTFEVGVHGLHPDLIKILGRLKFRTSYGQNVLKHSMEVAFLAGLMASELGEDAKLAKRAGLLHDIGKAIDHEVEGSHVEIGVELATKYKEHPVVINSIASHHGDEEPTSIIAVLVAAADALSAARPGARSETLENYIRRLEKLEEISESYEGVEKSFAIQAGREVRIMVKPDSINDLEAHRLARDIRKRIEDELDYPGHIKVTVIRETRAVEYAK
Chain of UniProt O34529 (O34529 whole entry): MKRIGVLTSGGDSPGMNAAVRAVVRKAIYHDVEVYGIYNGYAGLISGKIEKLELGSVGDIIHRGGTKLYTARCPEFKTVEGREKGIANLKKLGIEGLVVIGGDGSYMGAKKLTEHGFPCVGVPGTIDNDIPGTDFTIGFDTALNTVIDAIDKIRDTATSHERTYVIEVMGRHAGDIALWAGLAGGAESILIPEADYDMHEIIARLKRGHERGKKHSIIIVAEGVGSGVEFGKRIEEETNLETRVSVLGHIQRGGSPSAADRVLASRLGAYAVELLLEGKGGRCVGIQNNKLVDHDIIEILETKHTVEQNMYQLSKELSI

Substance | Kd [1] | Kd (PfkA (Bacillus subtilis)) | Kd [2]
Enolase (from UniProt P37869) | 100 nM | 40 nM | –
PNPase (from UniProt P50849) | 5 nM | – | 250 nM
